Reference: patent publication US20010016194A1 (priority 1999, published 2001)
“Also recorded” adds a separate entry of the source.

Legend:
[1] = molecular target: T1, Raf-1/14-3-3 binding to the IL-2Rb chain (Homo sapiens, UniProt P14784); test: COS cells co-transfected with IL-2Rβ chain and lck or fyn, immunoprecipitates probed for Raf-1 and 14-3-3; type: cell-based; conditions: co-transfection of COS cells, FIG. 10a
T1 construct: constructs encoding full-length or deletional mutants of the human IL-2Rβ chain; expressed in transfected cells; host or cells: COS cells, pRcCMV-IL-2Rβ, with or without lck or fyn
T1 sequence (P14784 27-551): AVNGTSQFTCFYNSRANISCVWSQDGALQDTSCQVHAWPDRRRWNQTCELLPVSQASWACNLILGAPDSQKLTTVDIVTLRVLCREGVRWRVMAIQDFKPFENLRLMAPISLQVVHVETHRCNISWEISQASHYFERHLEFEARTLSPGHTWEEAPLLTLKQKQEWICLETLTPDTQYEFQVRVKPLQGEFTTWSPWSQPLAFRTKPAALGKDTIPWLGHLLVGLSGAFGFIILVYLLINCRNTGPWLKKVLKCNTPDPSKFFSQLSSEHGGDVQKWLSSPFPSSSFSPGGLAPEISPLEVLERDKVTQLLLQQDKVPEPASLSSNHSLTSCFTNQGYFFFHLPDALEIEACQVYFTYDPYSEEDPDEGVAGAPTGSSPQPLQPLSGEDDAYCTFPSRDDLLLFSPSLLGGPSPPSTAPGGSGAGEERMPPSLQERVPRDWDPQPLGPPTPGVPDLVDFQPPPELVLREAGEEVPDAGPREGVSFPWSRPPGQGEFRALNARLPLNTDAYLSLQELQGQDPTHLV
From the text: In order to perform this examination, COS cells were transfected with IL-2Rβ chain alone, or co-transfected with lck or fyn, then […] with anti-IL-2Rβ chain antibody. The immunoprecipitates were then probed for the presence of Raf-1 and 14-3-3 proteins by immunoblotting (all procedures as detailed hereinabove).

[2] = molecular target: T2, Raf-1 serine/threonine kinase (Homo sapiens, UniProt P04049); test: Serine/threonine kinase assay on T-cell proteins retained by FLAG-HMK-IL-2Rβ chain, with or without genistein, Histone H1 substrate; type: biochemical; conditions: genistein 10 μg/ml; T-cell proteins bound to IL-2Rβ chain
T2 construct: endogenous in cells; host or cells: human T-cell lysate (Raf-1); BL-21 pLysS bacteria (IL-2Rβ fusion)
Experimental: The kinase reaction was initiated by the addition of 1 μCi of […] and 25 μM ATP. After 30 min at 24° C., the reaction was stopped by addition of reducing SDS-PAGE sample buffer and boiling.
(ii) Kinase reaction performed in the presence of Histone-H-1. There is an increased, genistein (tyrosine kinase inhibitor)-independent phosphorylation of Histone-H-1 in T-cell lysates retained on affinity beads coated with FLAG-HMK-IL-2Rβ chain. Control affinity beads coated with proteins isolated from bacteria transformed with vector alone and exposed to T-cell lysates retain only background level of serine/threonine kinase activity. These experiments were repeated a number of times. The results of a representative experiment are shown in FIG. 5 which is a reproduction of an autoradiogram of the products of the kinase reaction performed, in the presence of Histone H-1, on anti-FLAG beads coated with the IL-2Rβ chain construct (WT) and exposed to T-cell lysates in the presence of genistein (lane 3), or in the absence of genistein (lane 2) and then subjected to SDS-PAGE and autoradiography. The control (lane 1) was carried out with the FLAG-HMK vector alone (no insert).

Raf-1 / IL-2Rβ chain = conditions: IL-2 stimulation; cited from earlier work
[3] = molecular target: T3, IL-2Rβ chain/Raf-1/14-3-3 complexes (Homo sapiens, UniProt P14784); test: Pre-formed IL-2Rβ chain/(His)6 Raf-1/bacterial 14-3-3 complexes exposed to catalytically active p56lck in vitro; type: biochemical; conditions: enzymatically active kinase, FIG. 10b
T3 construct: construction of plasmid FLAG-HMK-IL-2Rβ chain cytoplasmic domain wild type (FLAG-HMK-IL-2Rβ-WT); made in house; host or cells: bacterial lysates (BL-21 pLysS for the IL-2Rβ fusion, M15 for Raf-1)
T3 sequence (P14784 266-551 limits assumed): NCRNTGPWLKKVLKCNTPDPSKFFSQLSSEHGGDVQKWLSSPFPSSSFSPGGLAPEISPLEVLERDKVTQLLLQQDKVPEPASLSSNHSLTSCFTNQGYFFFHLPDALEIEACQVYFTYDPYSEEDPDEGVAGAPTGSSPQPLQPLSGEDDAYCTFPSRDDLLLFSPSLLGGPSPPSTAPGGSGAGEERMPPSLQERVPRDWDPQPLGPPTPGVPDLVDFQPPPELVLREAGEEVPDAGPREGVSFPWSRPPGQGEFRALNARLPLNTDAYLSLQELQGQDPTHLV
Experimental: The results of this examination are shown in FIG. 10a which is a reproduction of the above immunoblot. […] In addition, a study of the dissociation of pre-formed IL-2Rβ chain/Raf-1/14-3-3 complexes by enzymatically active p56^lck was also carried out. Pre-formed IL-2Rβ chain/(His)6 Raf-1/bacterial 14-3-3 complexes were prepared (see above in respect of FIGS. a-c), exposed to catalytically active p56^lck (Upstate Biotechnology), washed and eluted with FLAG peptide. Eluates were separated on SDS-PAGE and tested for the presence of Raf-1 proteins. The results of this study are shown in FIG. 10b which is a reproduction of an SDS-PAGE gel in which is depicted the Raf-1 bands. […] Since there is no indication that p56^lck interacts with Ras-like sequence of the IL-2Rβ chain, it seems that binding of Raf-1 and p56^lck to distinct subdomains of the same A-region, co-localize kinase and its substrate for fast enzymatic reaction occurring during IL-2R activation.

T2 sequence (P04049 whole entry, the tested form may be a part): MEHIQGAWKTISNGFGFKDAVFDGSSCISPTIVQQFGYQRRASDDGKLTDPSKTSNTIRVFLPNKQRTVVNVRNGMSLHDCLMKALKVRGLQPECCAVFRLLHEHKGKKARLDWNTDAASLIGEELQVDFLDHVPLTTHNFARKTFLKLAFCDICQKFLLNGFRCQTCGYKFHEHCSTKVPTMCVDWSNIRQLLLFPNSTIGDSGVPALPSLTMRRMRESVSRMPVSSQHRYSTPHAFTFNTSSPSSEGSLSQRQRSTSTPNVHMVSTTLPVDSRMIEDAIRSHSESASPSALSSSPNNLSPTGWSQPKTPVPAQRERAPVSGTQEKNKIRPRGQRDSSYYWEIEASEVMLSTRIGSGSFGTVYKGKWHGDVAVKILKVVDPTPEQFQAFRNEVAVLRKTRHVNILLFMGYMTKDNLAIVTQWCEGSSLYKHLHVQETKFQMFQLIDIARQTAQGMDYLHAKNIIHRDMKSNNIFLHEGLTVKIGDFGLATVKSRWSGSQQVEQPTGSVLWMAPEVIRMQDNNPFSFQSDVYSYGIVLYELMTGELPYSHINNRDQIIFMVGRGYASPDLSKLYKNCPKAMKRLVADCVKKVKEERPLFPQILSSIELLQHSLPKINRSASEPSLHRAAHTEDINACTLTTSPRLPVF

| effect on Raf-1/14-3-3 binding to the IL-2Rb chain [1] | dissociation of pre-formed IL-2Rβ chain/Raf-1/14-3-3 complexes [3] | Molecule | effect of genistein on serine/threonine kinase activity (Histone H1 phosphorylation) [2] | dissociation of enzymatically active Raf-1 from the IL-2Rβ chain (Raf-1 / IL-2Rβ chain) |
| --- | --- | --- | --- | --- |
| did not cause this dissociation | – | p59^fyn: another src-like kinase, co-transfected in COS cells | – | – |
| – | – | O=c1c(-c2ccc(O)cc2)coc2cc(O)cc(O)c12 [genistein] | not inhibited; also recorded: independent | completely abolished |
| abrogation of Raf-1/14-3-3 binding | dissociation | p56^lck: src-family protein tyrosine kinase; catalytically active enzyme from Upstate Biotechnology or co-transfected in COS cells | – | – |
